Experimental findings from US20100322950 are described below.

The target in series [1] is tissue inhibitor of matrix metalloproteinase-1 (TIMP-1) (UniProt P01033).
Series [2] concerns recombinant human osteopontin (OPN), full-length.
Chain of recombinant human osteopontin (OPN), full-length (chain, as listed by the source): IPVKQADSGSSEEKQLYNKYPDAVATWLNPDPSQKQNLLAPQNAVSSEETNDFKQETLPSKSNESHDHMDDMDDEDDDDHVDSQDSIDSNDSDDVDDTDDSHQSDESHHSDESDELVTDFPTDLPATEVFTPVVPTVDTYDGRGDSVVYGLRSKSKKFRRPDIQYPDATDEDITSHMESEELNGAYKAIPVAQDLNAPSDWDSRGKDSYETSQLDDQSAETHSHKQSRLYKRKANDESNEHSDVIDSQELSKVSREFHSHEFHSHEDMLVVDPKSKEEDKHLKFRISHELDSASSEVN

Chain of human matrix metalloproteinase-9 (MMP-9) (Calbiochem) (chain, as listed by the source): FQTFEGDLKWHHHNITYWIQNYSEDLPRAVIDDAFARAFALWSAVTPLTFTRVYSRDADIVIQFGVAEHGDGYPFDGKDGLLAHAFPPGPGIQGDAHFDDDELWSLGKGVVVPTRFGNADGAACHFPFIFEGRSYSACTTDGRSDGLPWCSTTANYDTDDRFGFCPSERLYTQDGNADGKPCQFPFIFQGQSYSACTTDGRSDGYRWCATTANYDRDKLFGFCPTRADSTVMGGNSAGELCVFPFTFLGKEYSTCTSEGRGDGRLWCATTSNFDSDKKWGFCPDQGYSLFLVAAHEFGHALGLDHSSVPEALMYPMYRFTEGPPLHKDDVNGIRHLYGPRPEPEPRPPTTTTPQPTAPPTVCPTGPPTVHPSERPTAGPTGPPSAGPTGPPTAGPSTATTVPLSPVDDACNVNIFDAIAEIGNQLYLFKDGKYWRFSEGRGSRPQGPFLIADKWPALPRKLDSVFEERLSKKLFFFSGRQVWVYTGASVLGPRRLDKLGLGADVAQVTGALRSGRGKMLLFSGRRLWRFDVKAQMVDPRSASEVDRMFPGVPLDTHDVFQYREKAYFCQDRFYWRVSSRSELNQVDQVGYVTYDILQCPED
Chain of tissue inhibitor of matrix metalloproteinase-1 (TIMP-1) (P01033 24-207): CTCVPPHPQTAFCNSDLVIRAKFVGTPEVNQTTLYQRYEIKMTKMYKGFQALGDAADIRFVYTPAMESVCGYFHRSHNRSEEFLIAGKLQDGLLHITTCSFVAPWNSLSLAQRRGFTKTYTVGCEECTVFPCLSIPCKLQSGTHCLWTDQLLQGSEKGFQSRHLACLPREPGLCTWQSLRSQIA

Take “human matrix metalloproteinase-9 (MMP-9) (Calbiochem)”: in series [1], the “MMP-9 cleavage of OPN (formation of the OPN-5 kD fragment), TIMP-1 added to the reaction” value was “could not be detected in cleavage reactions partially inhibited by the concomitant addition of EDTA, a naturally-occurring inhibitor of MMP-9 (tissue inhibitor of matrix metalloproteinase-1, or TIMP-1), or the hydroxamate MMP-9 inhibitor I”. For the same substance, the “in vitro proteolytic cleavage of OPN (SDS-PAGE, N-terminal microsequencing, western blot)” value in series [2] is “Recombinant MMP-9 cleaved OPN at two predominant sites in vitro, residues 166 and 210, resulting in 4 identified fragments”.
